Results published in publication PMC9474812, “Structure of the membrane-bound formate hydrogenlyase complex from Escherichia coli” (Nature Communications, 2022).

T1: HycC (Escherichia coli, UniProt P16429 1-608)
T1 construct: Native subunit from the hycABCDEFGHI operon, not tagged; also called antiporter-like subunit HycC; source: endogenous, E. coli strain MG059e1, anaerobic fermentation; co-purified with His10-HycE from LMNG-solubilised membranes (HisTrap, SEC)
T1 sequence (looked up): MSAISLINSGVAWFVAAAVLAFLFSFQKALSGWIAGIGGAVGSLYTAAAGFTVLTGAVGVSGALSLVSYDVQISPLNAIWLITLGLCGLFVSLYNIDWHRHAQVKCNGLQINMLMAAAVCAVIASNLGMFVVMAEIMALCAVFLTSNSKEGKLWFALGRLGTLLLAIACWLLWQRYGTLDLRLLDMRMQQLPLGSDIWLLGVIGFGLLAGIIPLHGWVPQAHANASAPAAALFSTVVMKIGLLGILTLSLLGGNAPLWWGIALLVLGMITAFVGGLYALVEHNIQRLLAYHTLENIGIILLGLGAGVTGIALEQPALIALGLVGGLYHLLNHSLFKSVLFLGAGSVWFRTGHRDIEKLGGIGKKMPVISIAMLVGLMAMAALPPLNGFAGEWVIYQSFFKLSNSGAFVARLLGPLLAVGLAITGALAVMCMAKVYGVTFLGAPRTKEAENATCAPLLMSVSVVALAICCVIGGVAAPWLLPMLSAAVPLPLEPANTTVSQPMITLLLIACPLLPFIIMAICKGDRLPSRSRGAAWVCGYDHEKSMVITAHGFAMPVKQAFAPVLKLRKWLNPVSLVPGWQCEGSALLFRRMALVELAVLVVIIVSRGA

T2: formate dehydrogenase H (FdhF) (Escherichia coli, UniProt P07658 1-715, metal-coordinating selenocysteine (Sec); position not given)
T2 construct: Formate dehydrogenase H, FdhF, subunit of the E. coli formate hydrogenlyase (FHL) complex; carries Mo(MGD)2 and [4Fe4S] cluster A1; Native subunit, not tagged; also called formate dehydrogenase subunit FdhF; source: endogenous, E. coli strain MG059e1, anaerobic fermentation; co-purified with His10-HycE from LMNG-solubilised membranes (HisTrap, SEC)
T2 sequence (looked up): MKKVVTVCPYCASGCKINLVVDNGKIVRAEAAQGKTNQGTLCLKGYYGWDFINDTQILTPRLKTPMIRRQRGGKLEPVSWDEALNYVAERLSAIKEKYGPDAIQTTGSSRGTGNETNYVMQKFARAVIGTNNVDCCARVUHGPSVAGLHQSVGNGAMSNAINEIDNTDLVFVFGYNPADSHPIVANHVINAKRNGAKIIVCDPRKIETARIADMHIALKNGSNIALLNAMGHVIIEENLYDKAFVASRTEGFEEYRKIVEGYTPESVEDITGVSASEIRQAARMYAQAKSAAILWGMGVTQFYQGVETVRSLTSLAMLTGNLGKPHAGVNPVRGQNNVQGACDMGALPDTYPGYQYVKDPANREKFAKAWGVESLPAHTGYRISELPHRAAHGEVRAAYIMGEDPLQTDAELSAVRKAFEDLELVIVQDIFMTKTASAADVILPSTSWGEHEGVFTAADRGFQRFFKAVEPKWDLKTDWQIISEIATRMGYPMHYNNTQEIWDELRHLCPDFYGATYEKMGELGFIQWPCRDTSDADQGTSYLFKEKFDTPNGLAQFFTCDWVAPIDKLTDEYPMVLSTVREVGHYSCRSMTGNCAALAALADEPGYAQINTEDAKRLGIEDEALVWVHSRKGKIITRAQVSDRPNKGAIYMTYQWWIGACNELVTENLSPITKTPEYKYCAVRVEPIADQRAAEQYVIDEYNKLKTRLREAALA

B1: HycE, the large hydrogenase subunit of FHL, with an internal 10x His affinity tag (enzyme, Escherichia coli, UniProt P16431 1-537, looked up)
chain: MSEEKLGQHYLAALNEAFPGVVLDHAWQTKDQLTVTVKVNYLPEVVEFLYYKQGGWLSVLFGNDERKLNGHYAVYYVLSMEKGTKCWITVRVEVDANKPEYPSVTPRVPAAVWGEREVRDMYGLIPVGLPDERRLVLPDDWPDELYPLRKDSMDYRQRPAPTTDAETYEFINELGDKKNNVVPIGPLHVTSDEPGHFRLFVDGENIIDADYRLFYVHRGMEKLAETRMGYNEVTFLSDRVCGICGFAHSTAYTTSVENAMGIQVPERAQMIRAILLEVERLHSHLLNLGLACHFTGFDSGFMQFFRVRETSMKMAEILTGARKTYGLNLIGGIRRDLLKDDMIQTRQLAQQMRREVQELVDVLLSTPNMEQRTVGIGRLDPEIARDFSNVGPMVRASGHARDTRADHPFVGYGLLPMEVHSEQGCDVISRLKVRINEVYTALNMIDYGLDNLPGGPLMVEGFTYIPHRFALGFAEAPRGDDIHWSMTGDNQKLYRWRCRAATYANWPTLRYMLRGNTVSDAPLIIGSLDPCYSCTDR
notes: HycE, large [NiFe] hydrogenase subunit of the E. coli formate hydrogenlyase (FHL) complex; His10 tag placed after Gly-83; also called [NiFe] hydrogenase HycE; Hyd-3 large subunit; source: purified from LMNG-solubilised membranes (HisTrap, SEC); not shown: His10, internal (after residue 83), kept
B2: HycB (natural protein, Escherichia coli, UniProt P0AAK1 1-203, looked up)
chain: MNRFVIADSTLCIGCHTCEAACSETHRQHGLQSMPRLRVMLNEKESAPQLCHHCEDAPCAVVCPVNAITRVDGAVQLNESLCVSCKLCGIACPFGAIEFSGSRPLDIPANANTPKAPPAPPAPARVSTLLDWVPGIRAIAVKCDLCSFDEQGPACVRMCPTKALHLVDNTDIARVSKRKRELTFNTDFGDLTLFQQAQSGEAK
notes: HycB, ferredoxin-like subunit of the E. coli formate hydrogenlyase (FHL) complex; coordinates [4Fe4S] clusters B1-B4; Native subunit from the hycABCDEFGHI operon, not tagged; also called ferredoxin-like protein HycB; source: endogenous, E. coli strain MG059e1, anaerobic fermentation; co-purified with His10-HycE from LMNG-solubilised membranes (HisTrap, SEC)
B3: HycD (natural protein, Escherichia coli, UniProt P16430 1-307, looked up)
chain: MSVLYPLIQALVLFAVAPLLSGITRVARARLHNRRGPGVLQEYRDIIKLLGRQSVGPDASGWVFRLTPYVMVGVMLTIATALPVVTVGSPLPQLGDLITLLYLFAIARFFFAISGLDTGSPFTAIGASREAMLGVLVEPMLLLGLWVAAQVAGSTNISNITDTVYHWPLSQSIPLVLALCACAFATFIEMGKLPFDLAEAEQELQEGPLSEYSGSGFGVMKWGISLKQLVVLQMFVGVFIPWGQMETFTAGGLLLALVIAIVKLVVGVLVIALFENSMARLRLDITPRITWAGFGFAFLAFVSLLAA
notes: HycD, integral membrane subunit (ND1 homolog) of the E. coli formate hydrogenlyase (FHL) complex, eight TMHs; Native subunit from the hycABCDEFGHI operon, not tagged; also called membrane-anchor subunit HycD (ND1 homolog); source: endogenous, E. coli strain MG059e1, anaerobic fermentation; co-purified with His10-HycE from LMNG-solubilised membranes (HisTrap, SEC)
B4: HycF (natural protein, Escherichia coli, UniProt P16432 1-180, looked up)
chain: MFTFIKKVIKTGTATSSYPLEPIAVDKNFRGKPEQNPQQCIGCAACVNACPSNALTVETDLATGELAWEFNLGHCIFCGRCEEVCPTAAIKLSQEYELAVWKKEDFLQQSRFALCNCRVCNRPFAVQKEIDYAIALLKHNGDSRAENHRESFETCPECKRQKCLVPSDRIELTRHMKEAI
notes: HycF, ferredoxin-like subunit (NDUFS8 homolog) of the E. coli formate hydrogenlyase (FHL) complex; coordinates [4Fe4S] clusters F1, F2 and a metal ion at Cys117, Cys120, Cys155, Cys158; Native subunit from the hycABCDEFGHI operon, not tagged; also called ferredoxin-like protein HycF; source: endogenous, E. coli strain MG059e1, anaerobic fermentation; co-purified with His10-HycE from …

Key:
[1] = target: T1, HycC; assay: co-purification (His-tag affinity, then SEC); aerobic isolation: membranes solubilised with 0.5% LMNG, HisTrap FF by the His10 tag in HycE, Superdex 200 Increase; 20 mM Tris, 200 mM NaCl, 1 mM DTT, 0.005% LMNG, pH 7.5; settings: partners not purified
[2] = target: B1; assay: co-purification (His-tag affinity, then SEC); anaerobic isolation: as the aerobic one but in an anaerobic chamber (<1 ppm O2, 3-4% hydrogen in nitrogen), anaerobic buffers, lysis by sonication (also bead-beating or B-PER); settings: partners not purified
[3] = target: T2, formate dehydrogenase H (FdhF); assay: cryo-EM structure; aerobically isolated FHL (heptameric FdhF-HycBCDEFG) in LMNG, single-particle analysis, 3.4 Å (focused refinements 3.0-3.4 Å); settings: both partners purified
[4] = target: B1; assay: co-purification (His-tag affinity, then SEC); aerobic isolation: membranes solubilised with 0.5% LMNG, HisTrap FF by the His10 tag in HycE, Superdex 200 Increase; 20 mM Tris, 200 mM NaCl, 1 mM DTT, 0.005% LMNG, pH 7.5; settings: partners not purified
[5] = target: T1, HycC; assay: cryo-EM structure; anaerobically isolated FHL (hexameric HycBCDEFG) in LMNG, grids prepared in the anaerobic chamber with fluorinated fos-choline-8, 2.6 Å; settings: both partners purified
[6] = target: B2; assay: as above; settings: both partners purified

B1
binding result [1]: binds

B2
binding result [2]: binds | binding result [3]: binds

B3
binding result [4]: binds | binding result [5]: binds

B4
binding result [6]: binds | binding result [3]: binds
